Biological target: CD28, endogenous in primary mouse CD4+ T cells (mouse) (UniProt P31041)
Assay: cell-based or functional assay

CD28, endogenous in primary mouse CD4+ T cells (mouse), sequence (P31041 20-218): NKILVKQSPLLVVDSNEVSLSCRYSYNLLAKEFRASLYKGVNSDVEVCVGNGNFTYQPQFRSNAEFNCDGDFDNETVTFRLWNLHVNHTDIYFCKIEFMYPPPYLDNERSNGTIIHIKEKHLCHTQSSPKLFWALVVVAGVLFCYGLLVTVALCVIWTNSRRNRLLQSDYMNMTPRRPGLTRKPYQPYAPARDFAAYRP

Treg (FoxP3+) differentiation: 4 fold
inhibition of Th2 differentiation: 75%
inhibition of Th17 differentiation: 75%
Substance: Myc-tagged PKCθ V3 domain (aa 282-379 of human PKCθ, N-terminal Myc tag) (from UniProt Q04759 282-379)
